Test results published in the supplement of paper PMC9112550, “Optimization of the antimicrobial peptide Bac7 by deep mutational scanning” (BMC Biology, 2022).

What follows are sequences tested on Escherichia coli TOP10 (assay: shrunken log2 fold change of peptide-encoding DNA abundance (4.5 h post-induction vs induction); higher = less antimicrobial activity (less host growth inhibition)). Conditions: time post-induction: 4.5 h; library: site-saturation at positions 5, 18, 19, 20.
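Also: peptides expressed intracellularly from a pBAD plasmid library in pooled LB shake-flask culture, induced with 0.3% L-arabinose, DNA abundance read by NGS, three biological replicates, DESeq2 with apeglm shrinkage.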

| Sequence | shrunken log2 fold change |
| --- | --- |
| RRIRNRPPRLPRPRPRPNSWPRP | -0.3 |
| RRIRNRPPRLPRPRPRPNVHPRP | -0.309 |
| RRIRNRPPRLPRPRPRPNVVPRP | -0.122 |
| RRIRNRPPRLPRPRPRPNYDPRP | -0.222 |
| RRIRNRPPRLPRPRPRPNYHPRP | -0.801 |
| RRIRNRPPRLPRPRPRPPCKPRP | 0.0896 |
| RRIRNRPPRLPRPRPRPPIHPRP | -0.582 |
| RRIRNRPPRLPRPRPRPPISPRP | 0.129 |
| RRIRNRPPRLPRPRPRPPKDPRP | 0.131 |
| RRIRNRPPRLPRPRPRPPKQPRP | 0.22 |
| RRIRNRPPRLPRPRPRPPLDPRP | 0.0724 |
| RRIRNRPPRLPRPRPRPPMWPRP | -0.115 |
| RRIRNRPPRLPRPRPRPPPVPRP | 0.933 |
| RRIRNRPPRLPRPRPRPPQCPRP | -0.000221 |
| RRIRNRPPRLPRPRPRPPQFPRP | 0.334 |
| RRIRNRPPRLPRPRPRPPQRPRP | 0.457 |
| RRIRNRPPRLPRPRPRPPQWPRP | 0.315 |
| RRIRNRPPRLPRPRPRPPRGPRP | 1.3 |
| RRIRNRPPRLPRPRPRPPTEPRP | 0.389 |
| RRIRNRPPRLPRPRPRPPTIPRP | 0.244 |
| RRIRNRPPRLPRPRPRPPTVPRP | 0.175 |
| RRIRNRPPRLPRPRPRPPVVPRP | 0.000966 |

| Sequence | shrunken log2 fold change |
| --- | --- |
| RRIRNRPPRLPRPRPRPPVWPRP | 0.476 |
| RRIRNRPPRLPRPRPRPPYVPRP | -0.0374 |
| RRIRNRPPRLPRPRPRPQACPRP | -0.0265 |
| RRIRNRPPRLPRPRPRPQAGPRP | -0.128 |
| RRIRNRPPRLPRPRPRPQAMPRP | -0.0233 |
| RRIRNRPPRLPRPRPRPQCIPRP | -0.135 |
| RRIRNRPPRLPRPRPRPQCLPRP | 0.197 |
| RRIRNRPPRLPRPRPRPQEDPRP | 0.00256 |
| RRIRNRPPRLPRPRPRPQEKPRP | -0.198 |
| RRIRNRPPRLPRPRPRPQELPRP | -0.14 |
| RRIRNRPPRLPRPRPRPQEPPRP | 0.084 |
| RRIRNRPPRLPRPRPRPQGDPRP | 4.25 |
| RRIRNRPPRLPRPRPRPQGFPRP | -0.00956 |
| RRIRNRPPRLPRPRPRPQGVPRP | 0.0991 |
| RRIRNRPPRLPRPRPRPQIKPRP | -0.479 |
| RRIRNRPPRLPRPRPRPQIMPRP | -0.127 |
| RRIRNRPPRLPRPRPRPQKEPRP | -0.0193 |
| RRIRNRPPRLPRPRPRPQKSPRP | -0.101 |
| RRIRNRPPRLPRPRPRPQLEPRP | 0.307 |
| RRIRNRPPRLPRPRPRPQLMPRP | -0.0332 |
| RRIRNRPPRLPRPRPRPQLNPRP | -0.539 |
| RRIRNRPPRLPRPRPRPQLTPRP | -0.026 |

| Sequence | shrunken log2 fold change |
| --- | --- |
| RRIRNRPPRLPRPRPRPQMWPRP | -0.234 |
| RRIRNRPPRLPRPRPRPQNDPRP | -0.966 |
| RRIRNRPPRLPRPRPRPQNGPRP | 0.00902 |
| RRIRNRPPRLPRPRPRPQPIPRP | 0.14 |
| RRIRNRPPRLPRPRPRPQPMPRP | -0.111 |
| RRIRNRPPRLPRPRPRPQQVPRP | -0.0087 |
| RRIRNRPPRLPRPRPRPQRSPRP | 0.0667 |
| RRIRNRPPRLPRPRPRPQSFPRP | -0.0341 |
| RRIRNRPPRLPRPRPRPQSIPRP | -0.0502 |
| RRIRNRPPRLPRPRPRPQTNPRP | -0.276 |
| RRIRNRPPRLPRPRPRPQVVPRP | 0.0145 |
| RRIRNRPPRLPRPRPRPQWDPRP | -0.0901 |
| RRIRNRPPRLPRPRPRPQYWPRP | -0.37 |
| RRIRNRPPRLPRPRPRPRDIPRP | -0.138 |
| RRIRNRPPRLPRPRPRPRDMPRP | -0.121 |
| RRIRNRPPRLPRPRPRPRELPRP | 0.287 |
| RRIRNRPPRLPRPRPRPREVPRP | 0.00782 |
| RRIRNRPPRLPRPRPRPRGKPRP | 0.0233 |
| RRIRNRPPRLPRPRPRPRGRPRP | 0.316 |
| RRIRNRPPRLPRPRPRPRHHPRP | -0.246 |
| RRIRNRPPRLPRPRPRPRIPPRP | 0.157 |
| RRIRNRPPRLPRPRPRPRKMPRP | 0.263 |

| Sequence | shrunken log2 fold change |
| --- | --- |
| RRIRNRPPRLPRPRPRPRMEPRP | -0.0307 |
| RRIRNRPPRLPRPRPRPRNWPRP | -0.149 |
| RRIRNRPPRLPRPRPRPRPDPRP | 0.0914 |
| RRIRNRPPRLPRPRPRPRPHPRP | 0.226 |
| RRIRNRPPRLPRPRPRPRQGPRP | -0.0662 |
| RRIRNRPPRLPRPRPRPRQPPRP | 0.428 |
| RRIRNRPPRLPRPRPRPRRSPRP | 0.428 |
| RRIRNRPPRLPRPRPRPRTAPRP | -0.0352 |
| RRIRNRPPRLPRPRPRPRTYPRP | -0.571 |
| RRIRNRPPRLPRPRPRPRVCPRP | 0.205 |
| RRIRNRPPRLPRPRPRPRVPPRP | -0.134 |
| RRIRNRPPRLPRPRPRPRWTPRP | 0.0415 |
| RRIRNRPPRLPRPRPRPRYFPRP | -0.342 |
| RRIRNRPPRLPRPRPRPSCLPRP | -0.4 |
| RRIRNRPPRLPRPRPRPSDGPRP | 0.0337 |
| RRIRNRPPRLPRPRPRPSGAPRP | -0.0216 |
| RRIRNRPPRLPRPRPRPSLAPRP | 0.0683 |
| RRIRNRPPRLPRPRPRPSLCPRP | 0.0773 |
| RRIRNRPPRLPRPRPRPSLNPRP | -0.335 |
| RRIRNRPPRLPRPRPRPSLRPRP | -0.00371 |
| RRIRNRPPRLPRPRPRPSMEPRP | -0.118 |
| RRIRNRPPRLPRPRPRPSMVPRP | -0.508 |

| Sequence | shrunken log2 fold change |
| --- | --- |
| RRIRNRPPRLPRPRPRPSNQPRP | -0.299 |
| RRIRNRPPRLPRPRPRPSNYPRP | -0.791 |
| RRIRNRPPRLPRPRPRPSPIPRP | -0.561 |
| RRIRNRPPRLPRPRPRPSRMPRP | -0.454 |
| RRIRNRPPRLPRPRPRPSTHPRP | -0.274 |
| RRIRNRPPRLPRPRPRPSTTPRP | -0.47 |
| RRIRNRPPRLPRPRPRPSVLPRP | 0.0978 |
| RRIRNRPPRLPRPRPRPSWFPRP | -0.398 |
| RRIRNRPPRLPRPRPRPSWHPRP | -0.535 |
| RRIRNRPPRLPRPRPRPSYCPRP | -0.267 |
| RRIRNRPPRLPRPRPRPSYNPRP | -0.974 |
| RRIRNRPPRLPRPRPRPSYTPRP | -1.13 |
| RRIRNRPPRLPRPRPRPTCCPRP | -0.0383 |
| RRIRNRPPRLPRPRPRPTCVPRP | -0.185 |
| RRIRNRPPRLPRPRPRPTEGPRP | 0.0116 |
| RRIRNRPPRLPRPRPRPTFGPRP | -0.084 |
| RRIRNRPPRLPRPRPRPTGHPRP | 0.0742 |
| RRIRNRPPRLPRPRPRPTGLPRP | 0.0817 |
| RRIRNRPPRLPRPRPRPTHHPRP | -0.0659 |
| RRIRNRPPRLPRPRPRPTHRPRP | 0.597 |
| RRIRNRPPRLPRPRPRPTIGPRP | -0.00466 |
